From US20210380649A1 (BIO TECHNE, published 2021)
One block for each binder: values may come before it.

Columns and labels:
[1] = target: T1, recombinant mouse (rm) Wnt3a biotinylated protein (mouse, UniProt P27467 19-352, biotinylated (sites not given)); assay: ELISA: in-solution binding with biotinylated mouse Wnt3a (100 ng/mL), capture on streptavidin plate, detection with mouse anti-His antibody, FIG. 8
T1 construct: also called biotinylated mouse Wnt3a protein
Protocol: (§1) Purified recombinant mouse sFRP proteins were tested in ELISA binding assays with a biotinylated mouse Wnt3a protein. […] His tagged-mouse sFRP2 and His tagged-mouse sFRP3 were detected with a mouse anti-His antibody. HA tagged-mouse sFRP5 was detected with a mouse anti-HA antibody.
(§2) A 96-well tissue culture plate was blocked with 1% BSA in PBS and used as an in-solution binding plate. 120 μL of total volume containing 100 ng/mL recombinant mouse (rm) Wnt3a biotinylated protein and sFRPs (1:3 serial dilution) were incubated overnight at 4° C. in the binding plate. Then 100 μL of binding solution was transferred to streptavidin coated 96-well ELISA plate, incubating overnight at 4° C. followed by the HRP detection. The mouse sFRP1 was detected with a goat anti-mouse sFRP1 antibody, mouse sFRP2 and mouse sFRP3 were His-tagged and were detected with a mouse anti-His antibody, mouse sFRP4 was detected with a sheep anti-mouse sFRP4 antibody, and the HA-tagged mouse sFRP5 was detected with a mouse […]. […] secondary antibodies were used to detect the primary antibodies followed by colorimetric readouts.

[2] = target: T1, recombinant mouse (rm) Wnt3a …; assay: ELISA: in-solution binding with biotinylated mouse Wnt3a (100 ng/mL), capture on streptavidin plate, detection with mouse anti-HA antibody, FIG. 8
Protocol: as §1, §2

[3] = target: T2, mouse Wnt1 (mouse, UniProt P04426 28-370); assay: SDS-PAGE with Coomassie Blue of the gel-filtration purified complex, densitometry, FIG. 4F
T2 construct: In the co-IP and chromatography it is the protein found in CHO conditioned media; also called mWnt1; mWnt-1
T2 sequence (looked up): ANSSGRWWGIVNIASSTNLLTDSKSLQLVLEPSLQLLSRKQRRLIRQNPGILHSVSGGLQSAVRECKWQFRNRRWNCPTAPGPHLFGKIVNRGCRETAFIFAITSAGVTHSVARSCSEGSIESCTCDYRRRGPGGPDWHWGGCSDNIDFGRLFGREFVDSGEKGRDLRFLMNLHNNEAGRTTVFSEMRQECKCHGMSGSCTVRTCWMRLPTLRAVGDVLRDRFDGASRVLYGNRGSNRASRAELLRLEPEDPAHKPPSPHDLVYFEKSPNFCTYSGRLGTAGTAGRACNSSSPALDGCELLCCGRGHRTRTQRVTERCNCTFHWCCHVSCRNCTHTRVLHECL
Description: FIG. 4A. Conditioned media from CHO cells co-expressing msFRP1 and mWnt-1 were loaded onto SP Sepharose column, and bound proteins were eluted with a linear gradient of high salt buffer. The distinct late elution peak was the position that sFRP was usually eluted. FIG. 4B. Fractions collected from SP elution were loaded onto 15 percent (%) SDS-PAGE and stained with silver. The 37 kDa bands represent sFRP1. FIG. 4C. The same fractions of FIG. 4B were subjected to Western blot probed with antibody against mWnt-1. mWnt-1 was detected as a ˜52 kDa band that is present in the same fractions where sFRP1 was detected. FIG. 4D. Pool from a SP Sepharose column was loaded and eluted from a gel filtration (Superdex 200) column. The earlier-eluted peak contained the sFRP1/Wnt-1 complex, while the later-eluted peak contained the free sFRP. FIG. 4E. Fractions collected from gel filtration elution were loaded onto a 15% SDS-PAGE gel and stained with Coomassie blue. The lower band (37 kDa) represents sFRP1 and the upper band (52 kDa) represents Wnt-1. FIG. 4F. sFRP1/Wnt-1 complex purified from a gel filtration column was loaded onto a 15% SDS-PAGE gel and stained with Coomassie blue. Two bands, at 37 kDa and 52 kDa, were observed, with a roughly 1:1 molar ratio.

[4] = target: T2, mouse Wnt1; assay: cell-based or functional assay
[5] = target: T1, recombinant mouse (rm) Wnt3a …; assay: ELISA: in-solution binding with biotinylated mouse Wnt3a (100 ng/mL), capture on streptavidin plate, detection with goat anti-sFRP1 antibody, FIG. 8
Protocol: as §1, §2

T1 sequence (P27467 19-352 limits assumed): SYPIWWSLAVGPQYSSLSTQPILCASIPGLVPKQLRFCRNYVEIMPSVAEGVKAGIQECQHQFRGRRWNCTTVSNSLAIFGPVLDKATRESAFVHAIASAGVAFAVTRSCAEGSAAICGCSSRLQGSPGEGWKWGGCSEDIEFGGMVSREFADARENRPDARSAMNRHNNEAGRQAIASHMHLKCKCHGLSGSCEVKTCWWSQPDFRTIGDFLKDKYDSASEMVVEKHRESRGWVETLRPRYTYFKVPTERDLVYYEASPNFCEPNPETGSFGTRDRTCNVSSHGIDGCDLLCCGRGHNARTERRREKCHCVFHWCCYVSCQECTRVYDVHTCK

binding result [1]: binds
B1: His tagged-mouse sFRP2 (other, UniProt P97299 25-295, looked up)
chain: LFLFGQPDFSYKRSNCKPIPANLQLCHGIEYQNMRLPNLLGHETMKEVLEQAGAWIPLVMKQCHPDTKKFLCSLFAPVCLDDLDETIQPCHSLCVQVKDRCAPVMSAFGFPWPDMLECDRFPQDNDLCIPLASSDHLLPATEEAPKVCEACKTKNEDDNDIMETLCKNDFALKIKVKEITYINRDTKIILETKSKTIYKLNGVSERDLKKSVLWLKDSLQCTCEEMNDINAPYLVMGQKQGGELVITSVKRWQKGQREFKRISRSIRKLQC
notes: also called msFRP2; not shown: His tag

binding result [2]: binds
B2: HA tagged-mouse sFRP5 (other, UniProt Q9WU66 22-314, looked up)
chain: APTRGQEYDYYGWQAEPLHGRSYSKPPQCLDIPADLPLCHTVGYKRMRLPNLLEHESLAEVKQQASSWLPLLAKRCHSDTQVFLCSLFAPVCLDRPIYPCRSLCEAARAGCAPLMEAYGFPWPEMLHCHKFPLDNDLCIAVQFGHLPATAPPVTKICAQCEMEHSADGLMEQMCSSDFVVKMRIKEIKIDNGDRKLIGAQKKKKLLKAGPLKRKDTKKLVLHMKNGASCPCPQLDNLTGSFLVMGRKVEGQLLLTAVYRWDKKNKEMKFAVKFMFSYPCSLYYPFFYGAAEPH
notes: not shown: HA tag

molar ratio of the two bands in the purified complex [3]: ~1 molar ratio (sFRP1:Wnt-1) | fold induction above background, HEK293 TCF9-SEAP hFz4/hLRP5 Wnt Reporter assay, conditioned media of CHO cells co-expressing mWnt1 and msFRP1 [4]: 22 fold | binding result [5]: binds
B3: mouse sFRP1 (other, UniProt Q8C4U3 32-314, looked up)
chain: SEYDYVSFQSDIGSYQSGRFYTKPPQCVDIPVDLRLCHNVGYKKMVLPNLLEHETMAEVKQQASSWVPLLNKNCHMGTQVFLCSLFAPVCLDRPIYPCRWLCEAVRDSCEPVMQFFGFYWPEMLKCDKFPEGDVCIAMTPPNTTEASKPQGTTVCPPCDNELKSEAIIEHLCASEFALRMKIKEVKKENGDKKIVPKKKKPLKLGPIKKKELKRLVLFLKNGADCPCHQLDNLSHNFLIMGRKVKSQYLLTAIHKWDKKNKEFKNFMKRMKNHECPTFQSVFK
notes: Secreted protein; also called msFRP1; msFRP-1

fold induction above background, HEK293 TCF9-SEAP hFz4/hLRP5 Wnt Reporter assay, conditioned media of CHO cells co-expressing mWnt1 and msFRP1-His [4]: 17 fold
B4: mouse sFRP1-His (other, UniProt Q8C4U3 32-314, looked up, not shown: small tags and cut ends)
chain: SEYDYVSFQSDIGSYQSGRFYTKPPQCVDIPVDLRLCHNVGYKKMVLPNLLEHETMAEVKQQASSWVPLLNKNCHMGTQVFLCSLFAPVCLDRPIYPCRWLCEAVRDSCEPVMQFFGFYWPEMLKCDKFPEGDVCIAMTPPNTTEASKPQGTTVCPPCDNELKSEAIIEHLCASEFALRMKIKEVKKENGDKKIVPKKKKPLKLGPIKKKELKRLVLFLKNGADCPCHQLDNLSHNFLIMGRKVKSQYLLTAIHKWDKKNKEFKNFMKRMKNHECPTFQSVFK
